# Where two headings read alike, the source gives them in different places.
# B1: C5a: mouse C5a anaphylatoxin, purchased from Cell Sciences or R&D Systems (protein)
# chain: NLHLLRQKIEEQAAKYKHSVPKKCCYDGARVNFYETCEERVARVTIGPLCIRAFNECCTIANKIRKESPHKPVQLGR
# B2: C5a^desArg: desarginated form of mouse C5a (protein)
# chain: NLHLLRQKIEEQAAKYKHSVPKKCCYDGARVNFYETCEERVARVTIGPLCIRAFNECCTIANKIRKESPHKPVQLG
# Experiments:
# IL-6 production = assay: IL-6 ELISA in P. gingivalis-stimulated macrophages; type: cell-based, mouse; conditions: C5a 50 nM, 5 or 24 hours
# Procedure: Mouse peritoneal macrophages were incubated for 5 or 24 hours at 37° C. with P. gingivalis (Pg; MOI=10:1) in the presence or absence of C5a (50 nM), and culture supernatants were assayed for IL-6 by ELISA.
# macrophages [1] = system: macrophages
# Procedure: Thioglycollate-elicited macrophages were isolated from the peritoneal cavity of wild-type or mice deficient in TLR2, TLR4, C3aR, or C5aR (The Jackson Laboratory) (Zhang et al., 2007, Blood, 110:228-36; Gajishengallis et al., 2006, Cell. Microbiol., 8:1557-70), in compliance with established federal guidelines and institutional policies. The macrophages were cultured at 37° C. and 5% CO2 in RPMI 1640 (InVitrogen) supplemented with 10% heat-inactivated FBS, 2 mM L-glutamine, 100 units/ml penicillin G, 100 μg/ml streptomycin, and 0.05 mM 2-ME.
# Thioglycollate-elicited macrophages were isolated from the peritoneal cavity of wild-type or mice deficient in TLR2 or C5aR (Hajishengallis et al., 2006, Cell. Microbiol., 8:1557-70; Zhang et al., 2007, Blood, 110:228-36) in compliance with established institutional policies and federal guidelines. Both BALB/c and C57BL/6 C5aR-deficient mice were used (with their respective wild-type controls): The BALB/c mice were obtained from The Jackson Laboratory; and the C57BL/6 C5aR-deficient mice were originally provided by Dr. Craig Gerard (Harvard Medical School) and are now housed at The Jackson Laboratory. The TLR2-deficient mice were originally C57BL/6 (The Jackson Laboratory) and were backcrossed for nine generations onto a BALB/c genetic background before their use in these studies. […]
# [2] = system: GSK3β Ser9-phosphorylation; assay: GSK3β Ser9 phosphorylation ELISA in macrophages; type: cell-based, mouse; conditions: C5a 50 nM without Pg
# Procedure: PKA activity in lysates of activated cells was determined using the ProFluor™ PKA assay, according to the instructions of the manufacturer (Promega) (Hajishengallis et al., 2008, PNAS USA, 105:13532-7). Phosphorylation of GSK313 on Ser9 and total GSK3β were monitored using FACE™ GSK3β ELISA kits (Active Motif).
# intracellular cAMP = assay: cAMP enzyme immunoassay in P. gingivalis-stimulated macrophages; type: cell-based, mouse; conditions: for elevating cAMP, C5a vs C5a^desArg: 1 h
# [3] = system: mouse peritoneal macrophages; assay: P. gingivalis phagocytosis and receptor expression by flow cytometry; type: cell-based
# Procedure: First, experiments were performed to determine the effect of C5a (50 nM) or C3a (200 nM) on P. gingivalis phagocytosis by unprimed or IFN-γ-primed mouse peritoneal macrophages (FIG. 6A). The phagocytic index was calculated following a 30-min incubation using the following formula: % positive cells for fluorescently labeled P. gingivalis×MFI/100 (extracellular fluorescence was quenched prior to flow cytometry). Mouse macrophages were incubated at 37° C. for 30 min (B) or 24 hours (C) with medium, C5a (50 nM) only, or P. gingivalis (MOI=10:1) with or without C5a (50 nM). The expression levels of the indicated receptors, which coordinately mediate P. gingivalis uptake, were determined by flow cytometry after cell staining with appropriate fluorescently labeled antibodies (FIGS. 6B and 6C). The 30-min time point was examined to determine possible induced surface expression of preformed receptors from intracellular pools. […] Mouse-specific mAbs to TLR2 (clone 6C2), TLR1 (TR23), CD14 (Sa2-8), CD11b (M1/70), and CD18 (M18/2) were obtained from e-Bioscience.
# macrophages [4] = assay: Intracellular Ca2+ mobilization (Indo-1 AM), macrophages; type: cell-based, mouse; conditions: 50 nM
# IL-12p70 production = assay: IL-12p70 induction in IFN-gamma-primed macrophages, ELISA; type: cell-based, mouse
# Procedure: Induction of nitric oxide production was assessed by measuring the amount of NO2− (stable metabolite of nitric oxide) in stimulated culture supernatants using a Griess reaction-based assay kit (R&D Systems), as previously performed (Hajishengallis et al., 2008, PNAS USA, 105:13532-7). Levels of cAMP in activated cell extracts were measured using a cAMP enzyme immunoassay kit (Cayman Chemical) (Liang et al., 2007, J. Immunol., 178:4811-9). C5a-induced intracellular calcium mobilization was monitored in cells (4×10^6) loaded with 1 μM Indo 1-AM in the presence of 1 μM pluronic acid, as previously described (Ali et al., 1993, J. Biol. Chem., 268:24247-54). Calcium traces were recorded in a Perkin-Elmer fluorescence spectrometer (Model 650-19) with an excitation wavelength of 355 nm and an emission wavelength of 405 nm. Induction of cytokine production in activated cell culture supernatants or in the peritoneal fluid of infected mice was determined by ELISA using kits from eBioscience or Cell Sciences. C5a levels were measured by sandwich ELISA, employing a pair of capture and biotinylated anti-05a mAbs (BD Pharmingen), according to the manufacturer's protocol.
# Whether C5a inhibits P. gingivalis-induced IL-12p70 in peritoneal macrophages was investigated. Since macrophages are generally poor producers of IL-12p70 in vitro unless primed with IFN-gamma, macrophages used in these experiments were primed with IFN-gamma (0.1 μg/ml). […] The host TLR response against P. gingivalis is predominantly mediated by TLR2, both in vitro and in vivo. Therefore, whether C5a-mediated inhibition of P. gingivalis-induced IL-12p70 could involve a C5aR-TLR2 crosstalk additionally was examined.
# [5] = system: phagocytosed P. gingivalis in mouse peritoneal macrophages; type: cell-based, P. gingivalis ATCC 33277; conditions: for promoting intracellular survival, C5a vs C5a^desArg: 24 h
# Procedure: The viability of phagocytosed P. gingivalis was monitored by an antibiotic protection-based intracellular survival assay, as previously described (Wang et al., 2007, J. Immunol., 179:2349-58). Briefly, mouse peritoneal macrophages were allowed to phagocytose P. gingivalis (MOI=10:1; 5×10^6 bacteria and 5×10^5 cells) for […] at 37° C. This was followed by washing to remove extracellular nonadherent bacteria and 1-hour treatment with antibiotics (300 μg/ml gentamicin and 200 μg/ml metronidazole) to eliminate residual or extracellular adherent bacteria. The macrophages were subsequently cultured overnight (for a total of 24 hours) or for 48 hours Immediately after, the macrophages were washed and lysed in sterile distilled water, and viable counts of internalized P. gingivalis were determined by plating serial dilutions of macrophage lysates on blood agar plates subjected to anaerobic culture.
# The viability of phagocytosed P. gingivalis was monitored by an antibiotic protection-based intracellular survival assay, as previously described (Wang et al., 2007, J. Immunol., 179:2349-58)). Briefly, mouse peritoneal macrophages were allowed to phagocytose P. gingivalis (at a MOI=10:1; 5×10^6 bacteria and 5×10^5 macrophages) for 30 min at 37° C. This was followed by washing to remove extracellular nonadherent bacteria and 1-hour treatment with antibiotics (300 μg/ml gentamicin and 200 μg/ml metronidazole) to eliminate residual or extracellular adherent bacteria. The macrophages were subsequently cultured overnight for a total of 24 hours Immediately after, the macrophages were washed and lysed in sterile distilled water and viable counts of internalized P. gingivalis were determined by plating serial dilutions of macrophage lysates on blood agar plates subjected to anaerobic culture.
# [6] = system: negative regulators of TLR signaling; assay: Expression of negative regulators of TLR signaling, quantitative real-time PCR; type: cell-based, mouse; conditions: C5a 50 nM, 4 hours
# Procedure: Gene expression in resting or activated mouse macrophages was quantified using quantitative real-time PCR. Briefly, RNA was extracted from cell lysates using the PerfectPure RNA cell kit (5 Prime, Fisher) and quantified by spectrometry at 260 and 280 nm. The RNA was reverse-transcribed using the High-Capacity cDNA Archive kit (Applied Biosystems) and quantitative real-time PCR with cDNA was performed using the ABI 7500 Fast System, according to the manufacturer's protocol (Applied Biosystems). TaqMan probes, sense primers, and antisense primers for expression of a house-keeping gene (GAPDH) or iNOS (or the genes shown in FIG. 7) were purchased from Applied Biosystems.
# Supplemental experiments also examined the relative expression of negative regulators of TLR signaling in P. gingivalis-stimulated macrophages in the absence or presence of C5a. Mouse macrophages were stimulated with P. gingivalis (Pg; at a MOI=10:1) or medium control, in the presence or absence of 50 nM of C5a, and incubated for 4 hours. Quantitative real-time PCR (ABI 7500 Fast System; Applied Biosystems) was used to determine mRNA expression levels for the indicated molecules (normalized against GAPDH mRNA levels), which are shown in FIG. 7.
# human neutrophils = assay: In vitro killing of Pg and oxidative burst by human neutrophils; type: cell-based; conditions: presence of C5a
# Procedure: (§1) To directly implicate neutrophils in this evasion mechanism, in vitro experiments were performed. It was shown that the ability of mouse or human neutrophils (purified from peripheral blood5 collected under IRB approval) to kill Pg was inhibited in the presence of C5a in a C5aR-dependent manner, whereas their oxidative burst response was enhanced.
# neutrophils = assay: Intracellular Ca2+ mobilization (Indo-1 AM), neutrophils; type: cell-based, mouse
# mouse neutrophils = assay: In vitro killing of Pg and oxidative burst by mouse neutrophils; type: cell-based; conditions: presence of C5a
# Procedure: as §1
# nitric oxide production = assay: NO2− (nitric oxide) production, Griess reaction-based assay, macrophages; type: cell-based, mouse; conditions: for inhibiting nitric oxide, C5a vs C5a^desArg: 24 h
molecule,measurement,setting,value
B1,IL-6 production in P. gingivalis-stimulated macrophages,IL-6 production,up-regulation of IL-6 production
same,cell viability compared to medium-only treatments,macrophages [1],"None of the experimental treatments, including treatments with C5a up to 100 nM, affected cell viability"
same,Ser9-phosphorylation of GSK3β by C5a itself,[2],only slightly increased
same,"elevating cAMP, C5a vs C5a^desArg",intracellular cAMP; 10 nM,stronger effects than C5a^desArg
same,"elevation of intracellular cAMP, C5a + P. gingivalis relative to P. gingivalis alone","intracellular cAMP; C5a 50 nM, Pg MOI=10:1",> 3 fold
same,cAMP difference AMD+C5a+Pg vs. AMD+Pg,intracellular cAMP; CXCR4 blockade by AMD3100 1 μg/ml,> 6 fold
same,cAMP response to C5a by itself,intracellular cAMP; macrophages without P. gingivalis,failed to induce a cAMP response
same,P. gingivalis phagocytosis,"[3]; C5a 50 nM or C3a 200 nM, 30-min incubation",not significantly affected
same,"expression of macrophage receptors CD14, TLR2, CD11b/CD18","[3]; C5a 50 nM, 30 min or 24 hours",essentially unaffected
same,intracellular Ca^2+ mobilization,macrophages [4],comparable intracellular Ca^2+ mobilization
same,inhibition of P. gingivalis-induced IL-12p70,IL-12p70 production; 10 nM,already effective
same,P. gingivalis-induced IL-12p70 production,"IL-12p70 production; C5a 50 nM, 24 h",significantly inhibited
same,LPS-induced IL-12p70 production,"IL-12p70 production; C5a 50 nM, E. coli LPS 0.1 μg/ml, 24 h",significantly inhibited
same,"promoting intracellular survival, C5a vs C5a^desArg",[5]; 10 nM,stronger effects than C5a^desArg
same,intracellular survival of P. gingivalis in macrophages (viable counts of internalized bacteria),"[5]; Pg MOI=10:1, C5a 50 nM or C3a 200 nM, 24 or 48 hours post-infection",significantly promoted
same,Pg CFU with C5a in the absence of inhibitors,"[5]; macrophages with Pg and C5a, 24 hours postinfection, FIG. 2D dashed line",13.7±2.7 [×10^4] CFU
same,expression of negative regulators of TLR signaling with P. gingivalis and C5a,[6],no synergistic or additive effects
same,ability of neutrophils to kill Pg,human neutrophils,inhibited
same,oxidative burst response,human neutrophils,enhanced
same,intracellular Ca^2+ mobilization,neutrophils,only C5a was active
same,ability of neutrophils to kill Pg,mouse neutrophils,inhibited
same,oxidative burst response,mouse neutrophils,enhanced
same,"inhibiting nitric oxide, C5a vs C5a^desArg",nitric oxide production; 10 nM,stronger effects than C5a^desArg
same,production of nitric oxide in P. gingivalis-stimulated macrophages,"nitric oxide production; C5a 50 nM, unprimed or IFN-gamma-primed, 24 hours",significantly inhibited
B2,"elevating cAMP, C5a vs C5a^desArg",intracellular cAMP; 50 nM,no significant differences
same,intracellular Ca^2+ mobilization,macrophages [4],comparable intracellular Ca^2+ mobilization
same,inhibition of P. gingivalis-induced IL-12p70,IL-12p70 production; 10 nM,not
same,inhibition of P. gingivalis-induced IL-12p70,IL-12p70 production; 50 nM,significant (p<0.05) inhibition
same,"promoting intracellular survival, C5a vs C5a^desArg",[5]; 50 nM,no significant differences
same,intracellular Ca^2+ mobilization,neutrophils,only C5a was active
same,"inhibiting nitric oxide, C5a vs C5a^desArg",nitric oxide production; 50 nM,no significant differences

# Source: US20160084820A1, “METHODS OF TREATING OR PREVENTING PERIODONTITIS AND DISEASES ASSOCIATED WITH PERIODONTITIS” (priority 2010, published 2016)
